# Measured values taken from patent publication US20220281965A1 (AstraZeneca / MedImmune, published 2022).
# T1: mature recombinant mouse GDF-15 with Flag and His tags (mouse, UniProt Q9Z0J7 189-303)
# T1 construct: also called Flag tagged mouse GDF-15; not shown: FLAG and poly-His tags immediately C-terminal to the furin cleavage site (N-terminal on the mature protein)
# T1 sequence: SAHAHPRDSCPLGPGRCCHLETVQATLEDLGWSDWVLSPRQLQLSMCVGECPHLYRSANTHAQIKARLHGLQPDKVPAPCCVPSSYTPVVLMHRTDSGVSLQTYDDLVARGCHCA
# T2: mature recombinant human GDF-15 H202D variant with an N-terminal Flag and His tag, biotinylated (human, UniProt Q99988 197-308, chemically biotinylated with EZ link Sulfo-NHS-LC-Biotin, sites not stated)
# T2 construct: also called Human H202D; not shown: N-terminal Flag and His tags
# T2 chain: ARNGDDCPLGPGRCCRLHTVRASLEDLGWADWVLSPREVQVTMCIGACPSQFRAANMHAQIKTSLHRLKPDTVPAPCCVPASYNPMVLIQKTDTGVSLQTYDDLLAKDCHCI
# T3: mature recombinant human GDF-15 with an N-terminal Flag and His tag, biotinylated (human, UniProt Q99988 197-308, chemically biotinylated with EZ link Sulfo-NHS-LC-Biotin, sites not stated)
# T3 construct: not shown: N-terminal Flag and His tags
# T3 sequence: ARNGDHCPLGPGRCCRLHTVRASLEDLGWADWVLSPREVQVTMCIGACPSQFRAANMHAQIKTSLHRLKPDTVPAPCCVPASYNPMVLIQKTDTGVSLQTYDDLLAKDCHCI
# T4: mature recombinant cynomolgus GDF-15 with an N-terminal Flag and His tag, biotinylated (cynomolgus, UniProt G7PWZ3 197-308, chemically biotinylated with EZ link Sulfo-NHS-LC-Biotin, sites not stated)
# T4 construct: not shown: N-terminal Flag and His tags
# T4 sequence: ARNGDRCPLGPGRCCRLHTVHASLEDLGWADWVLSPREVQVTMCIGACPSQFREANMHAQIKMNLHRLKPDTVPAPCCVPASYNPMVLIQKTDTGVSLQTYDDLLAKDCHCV
# Experiments:
# [1] = target: T1, mature recombinant mouse GDF-15 with …; assay: SPR Biacore 8K, biotinylated mouse GDF-15 on streptavidin C1 chip, Fab as analyte
# Description: (§1) The experiments were carried out using mature recombinant human GDF-15, human GDF-15 H202D variant, mouse GDF-15, and cynomolgus GDF-15 with an N-terminal Flag and His tag. All species were chemically biotinylated using EZ link Sulfo-NHS-LC-Biotin (Thermo).
# (§2) Streptavidin was covalently immobilized to a C1 chip surface using standard amine coupling techniques at a concentration of 4 μg/ml in 10 mM Sodium acetate pH 4.5. Recombinant biotinylated GDF-15 species were titrated onto the streptavidin chip surface in HBS-EP+ buffer to enable Fab binding.
# (§3) Multiple buffer-only injections were made under the same conditions to allow for double reference subtraction of the final sensorgram sets, which were analyzed using Biacore 8K Evaluation Software. The chip surface was fully regenerated with pulses of 50 mM NaOH.
# [2] = target: T2, mature recombinant human GDF-15 H202D …; assay: SPR Biacore 8K, 25 C, biotinylated GDF-15 on streptavidin C1 chip, Fab as analyte
# Description: as §1, §2, §3
# [3] = target: T3, mature recombinant human GDF-15 with an …; assay: as above
# Description: as §1, §2, §3
# [4] = target: T4, mature recombinant cynomolgus GDF-15 …; assay: as above
# Description: as §1, §2, §3
binder,measurement,setting,value
"AB1170247 Fab (Fab, V domains shown, Fab of the humanized antibody, expressed as in Spooner et al. 2015) VH: QVQLVQSGSELKKPGASVKVSCKASGYTFTSYDINWVRQAPGQGLEWIGWIYPRDGISKYNEKFKGRATLTVDTSASTAYMELSSLRSEDTAVYYCAGTYDPAYFDYWGQGTTVTVSS VL: EIVLTQSPATLSVSPGERATLSCRASQSISYYLHWYQQKPGQAPRLLIKYASQSISGVPDRFSGSGSGTDFTLKISRVEAEDFGVYYCQQSNSWPYTFGGGTKVEIK",binding result,[1],no binding
same,Kd,[2],9.5 nM
same,koff,[2],0.0385 s⁻¹
same,kon,[2],4.06e+06 M⁻¹ s⁻¹
same,Kd,[3],9.24 nM
same,koff,[3],0.0386 s⁻¹
same,kon,[3],4.18e+06 M⁻¹ s⁻¹
same,Kd,[4],15 nM
same,koff,[4],0.0686 s⁻¹
same,kon,[4],4.58e+06 M⁻¹ s⁻¹
